In patent US20030223964A1 one finds retention time of the complex on size exclusion HPLC data, which are given here for two substances.

The target in this experiment is FITC-labeled CD4 (UniProt P01730). The experiment in a line: size exclusion HPLC (Biosil 250) after incubation with FITC-labeled CD4; free CD4-FITC elutes at 2.67 minutes.

In turn, “US4 gp120, purified from CHO cell supernatant” registered a retention time of the complex on size exclusion HPLC of 2.17 min.
The value for “oligomeric gp140 US4 (o-gp140 US4), purified from CHO cell supernatant” was 1.9 min.
